We go through four molecules from US20040142379A1 (CARLSBERG RESEARCH LABORATORY, published 2004).

Positions of bridges follow the written chain, without caps; N, C: chain ends. Non-standard residues stand in square brackets, D forms with d. Primed or numbered codes have the meaning given here. No end group written: not given here. T(Sa)″ = not defined here

Holding throughout (assay): on-bead capture from E. coli membrane protein extract; tryptic digest, MALDI peptide mass fingerprint
Test [1] addresses T1, NAD-dependent 7-alpha-hydroxysteriod dehydrogenase (Escherichia coli, UniProt P0AET8 1-255).
T1 sequence (looked up): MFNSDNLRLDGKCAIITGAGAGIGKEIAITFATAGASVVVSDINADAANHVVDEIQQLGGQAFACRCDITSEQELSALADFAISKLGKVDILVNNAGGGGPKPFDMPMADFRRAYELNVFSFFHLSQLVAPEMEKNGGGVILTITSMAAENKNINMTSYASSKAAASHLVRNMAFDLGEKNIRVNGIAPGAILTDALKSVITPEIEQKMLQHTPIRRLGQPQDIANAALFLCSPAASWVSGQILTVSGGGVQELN

In test [2] the target is T2, citrate synthetase (Escherichia coli, UniProt P0ABH7 1-427).
T2 sequence (looked up): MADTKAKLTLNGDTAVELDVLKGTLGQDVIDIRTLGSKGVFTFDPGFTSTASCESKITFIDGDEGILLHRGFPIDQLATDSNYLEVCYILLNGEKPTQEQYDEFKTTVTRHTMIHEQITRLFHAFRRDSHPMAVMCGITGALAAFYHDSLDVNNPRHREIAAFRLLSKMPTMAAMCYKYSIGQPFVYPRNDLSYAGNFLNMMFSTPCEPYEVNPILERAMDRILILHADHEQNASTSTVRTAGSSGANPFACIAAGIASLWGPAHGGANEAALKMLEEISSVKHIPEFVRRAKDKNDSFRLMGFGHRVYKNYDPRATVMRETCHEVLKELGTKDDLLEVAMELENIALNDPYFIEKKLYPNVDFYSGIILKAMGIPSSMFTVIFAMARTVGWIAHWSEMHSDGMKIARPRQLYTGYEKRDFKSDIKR

In test [3] the target is T3, glutamine tRNA synthetase (Escherichia coli, UniProt P00962 2-554).
T3 sequence (looked up): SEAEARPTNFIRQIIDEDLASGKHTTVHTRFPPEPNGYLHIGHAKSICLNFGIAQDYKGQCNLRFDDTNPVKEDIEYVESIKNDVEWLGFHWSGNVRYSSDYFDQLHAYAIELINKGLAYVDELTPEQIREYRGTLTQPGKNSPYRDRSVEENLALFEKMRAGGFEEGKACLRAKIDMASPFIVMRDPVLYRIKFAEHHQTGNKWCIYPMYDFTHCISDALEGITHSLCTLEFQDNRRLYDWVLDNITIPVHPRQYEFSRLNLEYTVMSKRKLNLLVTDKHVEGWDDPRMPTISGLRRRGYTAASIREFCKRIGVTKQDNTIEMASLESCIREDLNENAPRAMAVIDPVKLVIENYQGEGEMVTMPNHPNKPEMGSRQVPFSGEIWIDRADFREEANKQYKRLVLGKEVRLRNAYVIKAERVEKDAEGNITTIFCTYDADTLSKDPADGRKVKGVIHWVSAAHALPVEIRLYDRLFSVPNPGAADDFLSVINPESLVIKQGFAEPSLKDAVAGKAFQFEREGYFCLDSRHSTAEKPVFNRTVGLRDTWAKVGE

Test [4] has as its target T4, Biotin synthetase (Escherichia coli, UniProt P12996 1-346).
T4 sequence (looked up): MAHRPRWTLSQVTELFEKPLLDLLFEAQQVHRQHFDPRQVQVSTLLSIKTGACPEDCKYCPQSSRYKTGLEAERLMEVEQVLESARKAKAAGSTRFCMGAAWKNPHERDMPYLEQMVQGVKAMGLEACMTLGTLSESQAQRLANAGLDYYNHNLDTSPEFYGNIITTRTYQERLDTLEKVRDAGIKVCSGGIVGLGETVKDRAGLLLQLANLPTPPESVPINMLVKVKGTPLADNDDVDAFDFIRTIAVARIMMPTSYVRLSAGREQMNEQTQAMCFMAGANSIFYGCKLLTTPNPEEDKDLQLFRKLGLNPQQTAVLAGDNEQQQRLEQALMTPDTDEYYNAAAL

The target in test [5] is UDP-glucose dehydrogenase (Escherichia coli, UniProt P76373 1-388).
Test [6] addresses isopropyl malate dehydrogenase (Escherichia coli, UniProt P30125 2-363).
For test [7], the target named is T5, Mannose-1-phosphate guanyl transferase (Escherichia coli, UniProt P24174 1-478).
T5 sequence (looked up): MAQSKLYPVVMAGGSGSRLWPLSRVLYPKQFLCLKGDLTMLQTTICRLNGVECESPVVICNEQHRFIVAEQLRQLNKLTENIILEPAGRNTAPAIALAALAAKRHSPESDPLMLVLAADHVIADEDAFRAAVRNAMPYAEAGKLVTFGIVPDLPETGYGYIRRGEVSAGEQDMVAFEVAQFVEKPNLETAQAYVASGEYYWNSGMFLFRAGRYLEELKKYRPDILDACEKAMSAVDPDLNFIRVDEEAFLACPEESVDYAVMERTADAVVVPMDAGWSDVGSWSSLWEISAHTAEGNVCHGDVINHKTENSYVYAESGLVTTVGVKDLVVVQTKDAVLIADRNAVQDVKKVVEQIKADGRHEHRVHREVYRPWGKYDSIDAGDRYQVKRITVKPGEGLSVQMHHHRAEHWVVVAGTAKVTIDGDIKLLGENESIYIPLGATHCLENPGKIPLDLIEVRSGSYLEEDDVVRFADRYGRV

Chain of isopropyl malate dehydrogenase (P30125 2-363 limits assumed): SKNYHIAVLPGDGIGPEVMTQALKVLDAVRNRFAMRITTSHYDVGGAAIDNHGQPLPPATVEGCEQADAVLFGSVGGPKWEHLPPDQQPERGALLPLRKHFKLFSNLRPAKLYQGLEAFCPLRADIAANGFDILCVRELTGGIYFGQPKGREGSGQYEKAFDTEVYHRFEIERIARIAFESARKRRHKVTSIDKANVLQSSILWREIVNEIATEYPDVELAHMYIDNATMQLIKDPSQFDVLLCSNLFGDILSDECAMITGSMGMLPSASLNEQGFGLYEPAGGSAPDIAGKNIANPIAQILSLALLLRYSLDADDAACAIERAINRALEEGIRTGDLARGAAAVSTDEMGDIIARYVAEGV

B1: T(Sa)-L-S-W-W (peptide)
peptide: [T(Sa)″]LSWW
modifications: lactam N-1; reading uncertain; also: printed as T(Sa)-L-S-W-W
notes: Library 2 ligand, resynthesised on PEGA4000 resin bead
Take B1: the binding result in test [1] and in test [2] was “binds” throughout.

B2: T(Sa)-G-V-F-L (peptide)
peptide: [T(Sa)″]GVFL
modifications: lactam N-1; reading uncertain; also: printed as T(Sa)-G-V-F-L
notes: as for B1
On to B2, for which, in test [3], the binding result is given as “binds”.

B3: T(Sa)-Y-S-M-P (peptide)
peptide: [T(Sa)″]YSMP
modifications: lactam N-1; reading uncertain; also: printed as T(Sa)-Y-S-M-P
notes: as for B1
For B3, the binding result in test [4] and in test [5] was “binds” throughout.

B4: T(Sa)-H-W-H-I (peptide)
peptide: [T(Sa)″]HWHI
modifications: lactam N-1; reading uncertain; also: printed as T(Sa)-H-W-H-I
notes: as for B1
Turning to B4, the binding result in test [6] and in test [7] was “binds” throughout.
